# IntAct's records for PubMed 21358815
# B1: BAG family molecular chaperone regulator 5 (Rattus norvegicus (Rat)), Q5QJC9 (parent)
# chain: MDMGNQHPSISRLQEIQREVKSIEQQVVGFSGLSDDKNYKRLERILTKQLFEIDSVDTEGKGDIQQARKRAAQDTERLLKELEQNANHPHRIEIKNIFQEAQALVKEKTVPFYSGSNCVTSEFEEAIQDIILRLTHVKTGGKISLRKARYHTLTKICAVQEIIEDCVRKQPSLPLSEDVHPSVAKINSVMCEVNKARGTLIALLMGVDSSETCRHLSCVLSGLMADLDALDVCGRTEIRNYRREVVEDINKLLKYLDLEEEADNTHAFDLGQNHSIIKIENVLKRMREMKNELLQAQSPPELYLRSKTELQGLIGQLDEVSLEKNPCIREARRRAVIEVQTLITYLDLKEALEKRKLFPCEETPPHKAVWNVLGNLSEIQGEVLSFGGNRTDKNYIRLEELLTKQLLTLDAVDPLGEEKCKAARKQAVKLAQNILSYLDMKSDEWEY
# Variants of: B1
# Conditions: with chip_human STUB1, Q9UNE7
# Sequence of chip_human STUB1, Q9UNE7 (Q9UNE7 whole entry): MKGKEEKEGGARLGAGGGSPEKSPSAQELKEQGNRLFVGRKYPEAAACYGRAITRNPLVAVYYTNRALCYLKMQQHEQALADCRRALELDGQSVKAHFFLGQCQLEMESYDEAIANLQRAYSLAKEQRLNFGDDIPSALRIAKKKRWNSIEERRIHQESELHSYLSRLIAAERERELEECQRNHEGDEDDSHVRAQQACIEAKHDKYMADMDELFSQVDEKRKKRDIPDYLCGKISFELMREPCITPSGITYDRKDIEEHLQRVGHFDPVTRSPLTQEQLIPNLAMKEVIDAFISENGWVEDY
row,Variant,effect of a mutation on the interaction
1,D54A;R68A;D228A;R242A;D318A;R332A;D410A;R424A,disrupting interaction
